From US20130216549A1 (NOVLMMUNE S A, published 2013)
Changes are numbered by the printed parent chain. Each block holds one binder with its values, some of them ahead of it.

Columns and labels:
[1] = target: T1, NusA-rat IP-10 fusion protein (rat, UniProt P48973 22-98); test: capture ELISA: NI-0801 coated, NusA fusion protein titrated, detected with anti-NusA antibody, fluorescence
T1 chain: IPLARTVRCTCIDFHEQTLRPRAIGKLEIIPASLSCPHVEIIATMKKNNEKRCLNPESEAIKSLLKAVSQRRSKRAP
Text: (§1) Briefly, IP-10 cloned from cDNA isolated from mouse, rat, rabbit and cynomolgus as well as a panel of human chemokines was expressed and purified as described in Example 1.

[2] = target: T2, NusA-cynomolgus IP-10 fusion protein (cynomolgus, UniProt Q8MIZ1 22-98 (rhesus entry)); test: capture ELISA: NI-0801 coated, NusA fusion protein titrated (CK Conc [M]), detected with anti-NusA antibody, fluorescence
T2 construct: junction and C-terminal AviTag not spelled out
T2 sequence: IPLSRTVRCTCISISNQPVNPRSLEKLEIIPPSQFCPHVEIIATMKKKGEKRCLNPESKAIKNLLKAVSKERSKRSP
Text: as §1

[3] = target: T3, recombinant human IP-10 (Peprotech) (human, UniProt P02778 22-98); test: cell-based or functional assay
T3 sequence: T2 sequence with I1V, P32A, H38R

binding result [1]: no binding (tested: about 2.5e-7 M)
EC50 (read off the curve) [2]: ~1 nM
B1: NI-0801 (IgG1-formatted) (antibody, V domains shown)
VH: QVQLVESGGGVVQPGRSLRLSCAASGFTFSNSGIHWVRQAPGKGLEWVAVISYDGSNKYYADSVKGRFTISRDNSKNTLYLQMNSLRAEDTAVYYCARLRDNAEYTDYWGQGTLVTVSS
VL: NFMLTQPHSVSESPGKTVTISCTGSGGSIASNYVQWYQQRPGSSPTTVIYEDNQRPSGVPDRFSGSIDSSSNSASLTISGLKTEDEADYYCQSYDPLPVWVFGGGTKLTVLG

Calcium flux IC50 (nM); 10 nM hIP-10 [3]: 36 nM
Chemotaxis IC50 (nM); 1 nM hIP-10 [3]: 7 nM
B2: CC21R3P1_A2 (scFv format) (scFv, V domains shown)
VH: QLVESGGGLIQPGGSLRLSCAASGFSVSDTYMNWVRQAPGKGLEWVSSIYSDDSTYYADSVKGRFTISRDNSKNTLFLQINSLRAEDTAVYYCARDKEYVTSTGGAYYYFYYMDVWGQGTLVTVSS
VL: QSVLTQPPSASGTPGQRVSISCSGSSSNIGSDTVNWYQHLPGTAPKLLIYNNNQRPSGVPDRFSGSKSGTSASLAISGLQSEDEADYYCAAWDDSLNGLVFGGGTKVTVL
